Patent US20240352121A1, “LAIR-1 AGONISTIC ANTIBODIES AND METHODS OF USE THEREOF” (NEXTCURE, INC., priority 2023, published 2024)

Tests used:
[1] = system: THP-1 cells; experiment: THP-1-luciferase cell-derived xenograft (CDX) model; assay type: in vivo, NSG mice; conditions: 10 mg/kg i.p. twice a week
Description: FIGS. 29A-29C display h11B3 LAIR-1 mAbs, containing a variable light chain of SEQ ID NO: 16 and a variable heavy chain of SEQ ID NO:27, limits Leukemic cell growth in CDX Models. 2e6 luciferase-expressing MV4-11-Luc or THP-1-Luc cells were suspended in sterile PBS and implanted into NSG mice via tail-vein injection. Starting on day 8 post-challenge, mice were treated twice-weekly by intraperitoneal (i.p.) injection of 10 mg/kg of h11B3 LAIR-1 mAbs, containing a variable light chain of SEQ ID NO: 16 and a variable heavy chain of SEQ ID NO:27, or isotype (FIG. 29A). AML cell proliferation was monitored by weekly i.p. injection of D-Luciferin, immediately followed by IVIS bioluminescent imaging and quantification of luminescent signal. Mice NOD.Cg-Prkdcscid Il2rgtm1Wjl/SzJ (NSG) purchased from Jackson Labs strain #005557. Substrate Xenolight RediJect D-Luciferin Perkin Elmore Cat #770504. Imaging Perkin Elmore IVIS Lumina XRMS Series III.
NSG mice were injected with 2e6 THP-1 luciferase cells or 2e6 MV4-11-luciferase cells via tail vein injection. Leukemia progression was quantified by i.p. injection of 100 μL bioluminescent substrate and IVIS imaging 8 minutes post injection. Progression was assessed weekly staring on Day 7 post-challenge. […] Tumor growth was measured by calipers twice weekly until end point.

[2] = system: SoC-resistant AML; experiment: PDX model with BM from a VEN/AZA-resistant patient; design: species or system NSG-SGM3 mice; conditions: mouse, in vivo
Description: Ex vivo killing of VEN/AZA-treated AML patient leukemic cells (FIG. 7A) or T cells or NK cells (FIG. 7B). Values normalized to vehicle control. Lines represent linear regression of NC525 concentration versus normalized cell killing. […] FIGS. 7D and 7E show in vivo leukemic growth as measured by whole-body luminescence of MV4-11-luciferase cells (FIG. 7D) or survival (FIG. 7E) of CDX mice treated with 10 mg/kg isotype control (gray) or NC525 (red) or 100 mg/kg VEN (pink) or 0.5 mg/kg AZA (blue) or combination therapy (green or yellow, respectively). BLoD, below limit of detection. n=9 mice per group. P values determined by 2-way ANOVA or log-rank (Mantel-Cox) test, respectively. FIGS. 7F and 7G show leukemic growth in the blood (FIG. 7F) and in the spleen and BM (FIG. 7G) at week 8 after transplant of AML PDX mice treated with vehicle (gray), VEN/AZA (blue), NC525 (red), or VEN/AZA plus NC525 (green). n=5-10 mice per group. AML cells in spleen and BM compared from 4-5 mice per group. Data are shown as the mean±SEM. P values determined by 2-way ANOVA or 1-way ANOVA with multiple comparisons.
Newborn (3-5 day from birth) NSG-SGM3 pups were sub-lethally (200 cGy) irradiated. […] Leukemia progression in recipient mice was measured by flow cytometry by quantifying the percent of human CD33^+ human CD45^+ cells in peripheral blood at weeks 4, 6, and 10 weeks post-transplant.

B1: LAIR-1 mAb: humanized agonist anti-LAIR-1 mAb, IgG1 backbone; h11B3 VL-2 (SEQ ID NO: 16), h11B3 VH-3 (SEQ ID NO: 27) (antibody, V domains shown)
VH: EVQLVESGGGLVQPGGSLKLSCAASGFTFNTNAMYWVRQAPGKGLEWVGRIRSKSSNYATYYAASVKGRFTISRDDSKNTLYLQMNSLKTEDTAVYYCVRGGSGFFAYWGQGTLVTVSS
VL: DIQMTQSPSSLSASLGDRVTITCKASEDIYIRLAWYQQKPGKAPRLLISTATSLETGVPSRFSGSGSGTDYTFTISSLQPEDIATYYCQQYWSTPYTFGGGTRLEIK
modifications: IgG1 constant regions; Synthetic: h11B3 VH-3; Synthetic: h11B3 VL-2
For B1, the “leukemic cell growth in vivo” value [1] was “inhibited leukemic cell growth” and the “AML disease (circulating blast cell burden, AML cells in spleen and BM)” value [2] was “significantly reduced”.
